# In patent US6866851:
# Assays:
# Assay in all cases: cell-based or functional assay
# [1] = target: GFRα3-RET receptor complex (cells transfected with GFRα3 and expressing RET)
# [2] = target: GFRα2-RET receptor complex (cells transfected with GFRα2 and expressing RET)
# [3] = target: GFRα1-RET receptor complex (cells transfected with GFRα1 and expressing RET)
substance,measurement,setting,value
"PAP-Ha/F2ac (persephin with regions Ha, F2a and F2c from artemin) (ligand)",GFRα3-RET reporter activation relative to artemin (% of full length artemin),[1],70 to 80
"PNP-F2ac (His-Flag-PNP-F2ac, from mouse sequences) (ligand)",GFRα2-RET reporter activation relative to GDNF,[2],< 30 % of GDNF
"PNP-Ha/F2ac (persephin with regions Ha, F2a and F2c from neurturin) (ligand)",GFRα2-RET reporter activation relative to GDNF,[2],70 to 80 % of GDNF
"GPG-F2c (GDNF homologue-scanning mutant, region F2c replaced by persephin sequence) (ligand)",GFRα1-RET reporter activation relative to GDNF (% of full-length GDNF),[3],< 60
"GPG-Ha (GDNF homologue-scanning mutant, region Ha replaced by persephin sequence) (ligand)","GFRα2-RET reporter activation (FIG. 4, percentage of reporter activation by GDNF)",[2],27%
same,"GFRα1-RET reporter activation (FIG. 4, percentage of reporter activation by GDNF)",[3],80%
